Experimental findings from the DeepSol protein solubility set are described below.

A short description of the data set: soluble on expression in E. coli; label from the status in PepcDB or PDB records.
In the case of “MHESVTANIENVKKVAHHIQKLTSIVPEIGIICGSGLGKLADGVKDKITIPYTKIPNFPQTSVVGHSGNLIFGTLSGRKVVVMQGRFHMYEGYSNDTVALPIRVMKLLGVKILMVSNAAGGLNRSLKLGDFVILKDHIYLPGLGLNNILVGPNQEAFGTRFPALSNAYDRDLRKLAVQVAEENGFGNLVHQGVYVMNGGPCYETPAECTMLLNMGCDVVGMSTIPEVVIARHCGIQVFAVSLVTNISVLDVESDLKPNHEEVLATGAQRAELMQSWFEKIIEKLPKD”, the “soluble on expression in E. coli” value is “soluble”. As for “MHEYELNQDLLAENKRLAEKNREALRESGTVAVNIMGAIGSGKTLLIERTIERIGNEVKIGAMLGDVVSKADYERVRRFGIKAEAISTGKECHLDAHMIYHRLKKFSDCDLLLIENVGNLICPVDFDLGENYRVVMVSVTEGDDVVEKHPEIFRVADLIVINKVALAEAVGADVEKMKADAKLINPRAKIIEMDLKTGKGFEEWIDFLRGILNVHSDSGQN”, the entry is “not soluble”; as for “MHFADPREAREFLAAHPEVRSIELFLIDANGVPRGKLLHRDELLAVYESGRPLPSTILGLTINGDDVEETGLVWDVGDADCWTFPLPGSLTLQPWRQSPTGQVQVSMHPELGLPAAAGDPRHVLQRVIHSLQAEGFHPVMAVELEFYLLDRERDSDGRPLPALQMNGQRPRATQVYGVYELEQLQPFLDDLYAACEAQGLPARTAISEYAPGQVEITLQHRFDTLQAIDEGVRYKRLVKGVANRHGLQACFMAKPFADLSGSGLHLHVSLADAAGNNLFASEDPAGTPLLRQAIGGMKACLLESLALFCPNANSFRRFQANSYAPLAPTWGINNRTVSLRVPGGPASSRHIEHRICGADANPYLAAAALLAAVRLGIRERLDPGAPITGNGYAQATQALPSDWLTALRALEGSAWAREALGEDFLKIYLAIKQAEYRAFMGEVGE”, “not soluble”; as for “MHFPISMAVPARFTGPLPESCDVVVIGAGVIGVMTGWYLAERGFRVTVCEKGRVAGEQSSRNWGWIRQQGRDPDELPIMVESLRLWQGLAQSLGNPFGFRQTGVLYLANREEQLSQYEGWMIHAAAQGLDTRLLGRRELAERLPGAADLWQGGLFTASDARAEPWLAVPALAAGAAERGVTILEDCAVRALDLEGGRVAGVTTERGRIRAPEVVLAGGAWSSLFARAHGVNLPQLSVLSSVAQTEPLPEILPGAAADDAFAFRRREDGGYTIAGGSEHDFFIGPDAFRHALKYRKAVKKDFLSTHYRWLAPRDYPDGWNTPRTWSKGAPTPFEAMRVLNPAPNLATLSRAAAAFGRAFPGVGRPKIRATWAGMIDTMPDVVPVIDRAPSVPGLTIATGMSGHGFGIGPGVGRVVADLVAGRPVGHDLTRFRLSRFTDGSEITLGPSL”, “not soluble”. As for “MHFYKYGVLIDQLRDSFEWRVAFLDGSVSDHCCITVPSEKFNFPPTPGATVKAKFEHANSFLPSLVAQCGSFEWFRDVTVVNSKVVIFAIVHFSNECLERDPFKINGMDYSIIENENTDFQKIVLPTRVLQTSITSRSNLQNTDTPFIYRIGVCWEPISFENGVTVNWRYYADFPITPIFELYYRETTLPYIAESMVYGVLEGVVIAENDHGALFWTPKMGCAILPSTSLDTPMPSLGSVHVILVKRCIPENSFGFSCSYELLSSFRSTEWPNLKVITDQITRKVYIEANASCRSMMENQDFPSMNVPHIGKVFRGLQQYRDKLSAGHLYDFRMEFQKEEGSFVPTIVDLCLEEDEMVDCRVVYISNETSTYFAVLDPSSNSFDRFKQSIDYIAIPFRVLFCANGVHVKNEELLLNSYKVRVRVPRNRHDVVNAIHVEHVIQSPKDPAYFITNGSVWLRTTVKFQNASRYELLCPLLEQKIIDVNGVTAAMSLTQEFTVHAQFVLMERNVPVFVVRQLASTVREHPRTTNYPSRSLNLSYEVSGALARTNPNGQLSAADNNIVLINDSISLDHNLPDTGEYPTILNESSFERQLLFDNQSIADSASTSGDFILTESVYESSSAASTCTVIDRNDARFSALNDDSNILISESWLDSTNQHSETTMDTPEIITESFYESTHDQASSRASTVDRLASDVDKISIGRPDYSPPPRRRIFGYSTPGDRVRPRNSYGSSSSGSLNGRPKRRAPYGFRQIRNITPHNVLLRDIIYNNINNRKMFVEQNKNAILKCWNRLPLAQVTRTKKIFCTVIAVESIKFPPSFDDTCIKGLVRFAVVYDDMNVKNTSVVVPIGGNFNNLPKSFQLGDAYKVFHFSSYKDLICRIGGFSHGLNGELSRVAPVNCISNPETVNGRYGQRYLRCTVNAARPAISEIESDVFELWTVHGLPGFIIVEKVPLLMNHLNKEPINPDVHHQHMYTCIIEPLAGGPVEASILKDVKEGEDICIFWRLVVEFSDTVPLPRLKEKTDKVVPQIRTEPVQSGTFSVDDYGCWETLRINSILAQEKLDRMRAVGDPRVKMIDGPDLRPEIEVRKVDVNTRREKMFAAFDALLEKLPQLHSEGILGYVLEDDLRVKIKKLTPMNDNNHKFTFTFRNGSLEIGVNYLTDMLTRGKIYKVMNEMKKHVPLLKVLSDCIGLNTTYIKKTDAVKMMLHYMYRNELHTYL”, the entry is “not soluble”; as for “MHGIDLHTHSNISDGTLSPSCLVDAAIACGIHTLALTDHDTMDGLETAIQQAQGHDIQIISGAEISSQWSRPNTKKAYGVHIVALNMQNPEPLLDALVIQKNIRAERAQQICQILQQCTGQDIYTDVLLKVEGEPDRITRTHIAKALVEKEIVARPQQAFDRFLKEGKRAYVKFDGLNLADTIRIIHESEGFAILAHPTRYDLSSTNVRYLIELFAKMGGDAVELPPSVDPVSTRQMIDRIIQQFDLKVSIGSDFHGENMPWIKLGHTPQPNPHQTGIWESFR”, “not soluble”.

As for “MHHHHHHLESSGDFSLLSSPINREKNGTEIVKFSIHPYKGTVIRLGEEILPFKVLEMDKNIALVEMAIPVYKDEKEIELKLSSPGFQNSSYRIRKPEELNEKLIALDKEGITHRFISRFKTGFQPKSVRFIDNTRLAIPLLEDEGMDVLDINSGQTVRLSPPEKYKKKLGFVETISIPEHNELWVSQMQANAVHVFDLKTLAYKATVDLTGKWSKILLYDPIRDLVYCSNWISEDISVIDRKTKLEIRKTDKIGLPRGLLLSKDGKELYIAQFSASNQESGGGRLGIYSMDKEKLIDTIGPPGNKRHIVSGNTENKIYVSDMCCSKIEVYDLKEKKVQKSIPVFDKPNTIALSPDGKYLYVSCRGPNHPTEGYLKKGLVLGKVYVIDTTTDTVKEFWEAGNQPTGLDVSPDNRYLVISDFLDHQIRVYRRDGF”, the “soluble on expression in E. coli” value is listed as “soluble”. In the case of “MHHHHHHMGIVTGPIIDHSKENDVMNEAEQNAETVRRGYAAFNSGDMKTLTELFDENASWHTPGRSRIAGDHKGREAIFAQFGRYGGETGGTFKAVLLHVLKSDDGRVIGIHRNTAERGGKRLDVGCCIVFEFKNGRVIDGREHFYDLYAWDEFWR”, the “soluble on expression in E. coli” value is “soluble”.

With “MHHHHHHMNPERSERIEIPVLPLRDVVVYPHMVIPLFVGREKSIRCLEAAMDHDKKIMLVAQKEASTDEPGVNDLFTVGTVASILQMLKLPDGTVKVLVEGLQRARISALSDNGEHFSAKAEYLE”, the “soluble on expression in E. coli” value is listed as “soluble”.

Regarding “MHHHHHHPMEPEIKIVNVVVSTKIGDNIDLEEVAMILENAEYEPEQFPGLVCRLSVPKVALLIFRSGKVNCTGAKSKEEAEIAIKKIIKELKDAGIDVIENPEIKIQNMVATADLGIEPNLDDIALMVEGTEYEPEQFPGLVYRLDDPKVVVLIFGSGKVVITGLKSEEDAKRALKKILDTIKEVQEL”, the “soluble on expression in E. coli” value was “soluble”. As for “MHHHHHHSSGLVPRGSGMKETAAAKFERQHMDSPDLGTDDDDKAMADIGSEFMSTYHERPLGPASAAEWFRQRSYDYGQFPPEDLARRKRELGLTVSAVLPSRNVADTVGGIIDEIHALNERAPLIDQILVVDADSEDGTAGVAASHGAEVYSENELMSGYGDAHGKGDAMWRALSVTRGDLVLYIDADTRDFRPQLAYGVLGPVLEVPGVRFVKAAYRRPFRKGESIEEDGGGRVTELTAKPLFNLFYPELAGFVQPLAGEFVADRELFCSIPFLTGYAVETGIMIDVLKKVGLGAMAQVDLGERQNRHQHLRDLSRMSYAVVRAVARRLRQEGRLQQLREPGLPESFFQLSDYLHAVATPEGLKLQEYVEELVERPPINEVLRVR”, the entry is “soluble”.
